This test has as its target T1, GST-USP29 (UniProt Q9HBJ7 1-922).
T1 construct: USP29 cloned into pGEX-4T-1; also called purified GST-USP29; GST-USP29 WT; source: E. coli BL21, purified (Pierce Glutathione Agarose)
T1 sequence (looked up): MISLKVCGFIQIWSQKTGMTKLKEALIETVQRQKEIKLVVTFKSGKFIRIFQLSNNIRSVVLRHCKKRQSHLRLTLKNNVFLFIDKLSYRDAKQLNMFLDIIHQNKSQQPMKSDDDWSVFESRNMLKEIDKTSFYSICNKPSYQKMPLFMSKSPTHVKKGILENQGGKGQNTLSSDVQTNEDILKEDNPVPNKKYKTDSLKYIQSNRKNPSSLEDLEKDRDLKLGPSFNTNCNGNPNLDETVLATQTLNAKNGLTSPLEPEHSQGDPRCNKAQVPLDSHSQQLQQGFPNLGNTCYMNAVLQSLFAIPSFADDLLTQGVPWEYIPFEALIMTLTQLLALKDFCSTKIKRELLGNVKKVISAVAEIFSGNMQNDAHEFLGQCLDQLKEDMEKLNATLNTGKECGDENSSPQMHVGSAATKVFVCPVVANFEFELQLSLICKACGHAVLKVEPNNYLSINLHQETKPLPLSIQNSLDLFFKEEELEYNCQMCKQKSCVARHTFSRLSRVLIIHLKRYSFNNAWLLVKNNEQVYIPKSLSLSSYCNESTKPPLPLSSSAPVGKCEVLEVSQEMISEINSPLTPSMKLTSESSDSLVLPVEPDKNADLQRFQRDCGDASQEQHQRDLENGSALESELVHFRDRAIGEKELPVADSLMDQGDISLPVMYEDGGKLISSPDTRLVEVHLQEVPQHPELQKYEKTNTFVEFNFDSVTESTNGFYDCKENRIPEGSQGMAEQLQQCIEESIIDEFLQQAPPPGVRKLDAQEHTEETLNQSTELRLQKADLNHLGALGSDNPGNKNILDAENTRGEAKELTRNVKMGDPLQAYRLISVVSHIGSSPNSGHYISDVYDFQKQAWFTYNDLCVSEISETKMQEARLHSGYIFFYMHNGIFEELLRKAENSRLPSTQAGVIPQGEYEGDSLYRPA
Description: pull-down; GST or GST-USP29 bound to Pierce Glutathione Agarose incubated with the purified His-tagged protein overnight at 4 °C; beads washed four times with PBS; western blot. Conditions: both partners purified. A general note: In western blotting, separated proteins are transferred to a membrane and probed.

The source of these data is article PMC10104637, “Phosphorylation of USP29 by CDK1 Governs TWIST1 Stability and Oncogenic Functions” (Advanced Science, 2023).

B1: His-TWIST1 (natural protein, UniProt Q15672 1-202, looked up)
chain: MMQDVSSSPVSPADDSLSNSEEEPDRQQPPSGKRGGRKRRSSRRSAGGGAGPGGAAGGGVGGGDEPGSPAQGKRGKKSAGCGGGGGAGGGGGSSSGGGSPQSYEELQTQRVMANVRERQRTQSLNEAFAALRKIIPTLPSDKLSKIQTLKLAARYIDFLYQVLQSDELDSKMASCSYVAHERLSYAFSVWRMEGAWSMSASH
notes: TWIST1 cloned into PET28A; also called PET28A-TWIST1; source: E. coli BL21, purified
For the molecule B1, the binding result is on record as “binds”.
